Assay [1] addresses HIV-1 NL4-3 CA P17C/R18L/T19C/W184A/M185A (disulfide-crosslinked pentamer) (HIV-1 NL4-3). The experiment in a line: crystal structure.
The target in assay [2] is HIV-1 NL4-3 CA N21C/A22C/W184A/M185A (disulfide-crosslinked pentamer) (HIV-1 NL4-3). As to the kind of experiment: crystal structure.

As to “HIV-1 NL4-3 CA P17C/R18L/T19C/W184A/M185A (disulfide-crosslinked pentamer) (natural protein)”, in assay [1], the stoichiometry N (commonly a count of units in the complex or per binding partner) turned out to be 5. In assay [2], “HIV-1 NL4-3 CA N21C/A22C/W184A/M185A (disulfide-crosslinked pentamer) (natural protein)” had a stoichiometry N of 5.

For the origin of these results see publication PMC3075868.
